Laboratory results taken from the DeepSol protein solubility set.

experiment: soluble on expression in E. coli; label from the status in PepcDB or PDB records

Sequence | soluble on expression in E. coli
EDPLAKKQTVRLIKDLQRAINKVLCTRLRLSNFFTIDHFIQKLHTARKILVLTGAGVSTSLGIPDFRSSEGFYSKIKHLGLDDPQDVFNYNIFMHDPSVFYNIANMVLPPEKIYSPLHSFIKMLQMKGKLLRNYTQNIDNLESYAGISTDKLVQCHGSFATATCVTCHWNLPGERIFNKIRNLELPLCPYCYKKRREYFPEGYNNKVGVAASQGSMSERPPYILNSYGVLKPDITFFGEALPNKFHKSIREDILECDLLICIGTSLKVAPVSEIVNMVPSHVPQVLINRDPVKHAEFDLSLLGYCDDIAAMVAQKCGWTIPHKKWNDLKNKNFKCQEKDKGVYVVTSDEHPKTL | soluble
MGSDKIHHHHHHMIYISKEINTPLYDQIYRQIQGDIISGNLSPGTLLPGIRTLAKTLGVARNTVDKAYTQLAVEGYIIPRKGAGFAVESIRDSKKSAELQPLSSGVSAHPGHEKAEKKLPYDFQYGSFPEEYFPKTAWKKHMLEVLALPHLSAQMTQYQDKQGNLSLRCELQNYLYQTRGVVCTEDQILIGCGLHYSLDTLCKLFAGHKRIAMEEPGYNGAKEVFQNNGFTIRHIPSTPYGLDLSQLKTLAVPIVYVTPSHQFPYGTVLPISKRRELLEWAAEENAYIIEDDYDSEYRYDANPIPSLQSIDGHDRVIYIGTFSKSLSPSLRINYMVLPKSLLPAYHQMFSTYSSPVTWLTQEVLASFLRSGDYTRHVRRMCAAYRKRHDVFVQQLSQHFGPNIVLHGQGAGLHFLVEFAEEVEAEGLIQMAEEAGVRVYPVTPFWSASEACPPNLLFAGYSLLNERQIQEGLRLLKEVWAPVLEIK | not soluble
QLTPTFYDNSCPNVSNIVRDTIVNELRSDPRIAASILRLHFHDCFVNGCDASILLDNTTSFRTEKDAFGNANSARGFPVIDRMKAAVESACPRTVSCADLLTIAAQQSVTLAGGPSWRVPLGRRDSLQAFLDLANANLPAPFFTLPQLKDSFRNVGLNRSSDLVALSGGHTFGKNQCRFIMDRLYNFSNTGLPDPTLNTTYLQTLRGLCPLNGNLSALVDFDLRTPTIFDNKYYVNLEEQKGLIQSDQELFSSPNATDTIPLVRSFANSTQTFFNAFVEAMDRMGNITPLTGTQGQIRLNCRVVNSNSLLHDMVEVVDFVSSM | soluble
MTTTIEVGMLGLGTVGSGVVERLTRSAAKIEQTQGIRLHLAAVAVNHLNAPRTVQLPIGTRLTDSLTNVVCDRKIQLVIEVMGTVATAKKAIVAALNQGKAVVTANKDLIATAGPELAALAKKQGCDLFYEASVAGGIPILRTLTDSYVTDNVQAVSGIINGTANYMLSAMATGQSYEQALATAQATGYAEADPTNDVAGIDAAYKLMILSRFAFGQELSLPQIAPTGITHLSASVCRLAAENGWQIKLLAQIQRHGSGLYCRVAPVAVPVDQPLSQINGVQNAVAVQSEAIGTSLYTGPGAGSTATANSVLNDVLVAAKHLINGYRMIRNQKRSVSLTVTRFDQLPQTYLGIGPVAPEAVKYYANEADFSVKTIADDCYQITGLSAVKRKKLRANLPLTLIPIAGTTDWKQVTENSITSPINVAILEHHHHHH | soluble
MDYLYHPYPSQRMTVFAKNGVVATSQPLAAQAGLDVLKKGGNAIDAAIAAAACLTVVEPTSNGIGGDAFALVWTDGKLYGLNASGYAPKSISIEALKELGYTEMPKYGFAPVTVPGAPAAWAALSKRFGRLPLVETLAPAIAYAENGYPVSPVLGKYWAAAFRTYKEALRGPEFAAWFATFAPGGRAPKIGEVWASPDHAATLRSIAETEAESFYRGELAEKIAAFSKQYGGFLAADDLAEYEPEWVEPISVSYRGYEVWEIPPNGQGIVALMALNIMNGFDVPSVSDVETHHRQIEAMKLAFADGKAYIADRRYMNCSPDELLSESFAAMRRAQIGEEALTPEPGTPPKGGTVYLAAADGEGNMVSFIQSNYMGFGSGLVVPGTGIALHNRGHNFAFDESHPNGLAPRKKPYHTIIPGFLTKGGAPVGPFGVMGGFMQPQGHLQVIMNTVDFDLNPQAALDAPRWQWMEGKTVLVEPHFPRHIAEALARKGHDIRLALDSGLFGRGQIIWRDPDTGVLAAGTEPRTDGAVAAW | not soluble
MPGNSGNDRSVVVGRVSGAFGVRGWVKAVSFTDPPVNLVGYRPWTLRRGDAERRADVLEGREHGNAVIVRLQGVDTREQAEALKGFEVTVRRSQLPPPAPGEYYRVDLVGLKVVNLGETVLGEVVDVMETGANDVLVVQGDRERLLPFVQGVFVKSVNLEESRIVVDWDPGFLEHHHHHH | not soluble
MSLSSDSGNSSGKTTIEWWNITTTEPAKKLWAQRAKEFEAAHPDVKIKIVTLENEAYKSKMTAQTASGKLPDIYHTWGGGVLEQQIDAGLVEDLTDRVSSWTDTYVPAALAAYRFDSRTYAVPFDIGAVGFWYNKALFKQAGIDTPPTTWSGFLDAVRSLKSAGITPIALAGKEKWPGMYYWAYLSMRVAGLDAMHKAATDADFTGDGFVKAGQHLKDLVALQPFQKGFLGAGYSTPTGEAAAMGNGKAAMELMGQWAPVVEKDAGKGLGKDLGFFSFPAVEGGKGALTEVFGGGGGHAVRKGAPEAAVEFLKFFGEKEFAGKLVKETGLIPVSKDARGALTDPNLTAVSDALNAATGFQLYLDQAYAPAVGQEINDSVAALVAGSKSPQQVTRSVTQVAKSEKSEGHHHHHH | not soluble
MSDVIFLRQYDDIDIVSSPSQNNIIFGHEAARHFLAQILKEERLPHAILFEGDYGIGKATLAFHLAWNILSSQKDGFKQPEHNSVIWRQITQGSHPGLLHISRRFDVKTQKFKTGILFDDIRDIIHFLNRTSKDSGWRIVIIDPADDMNRNAANAILKTLEEPPAKTLFIIITHFSGKLLPTIRSRCQQISLRPLHNDEMKKIIIHMFSNQNVIDEENIGMIIQKSNGNPRKAALLIHGGFEIIKTIDTLLGQSVCNPTIVHNLAQTLSSLSSVIQFQQFCDEILDKIQKKAIMLAERGNLALSKKCAQAWQEIHQEIGEIQSFNLDKKQFIINLLFRVHKIICESELFP | not soluble
HHHHHHESDDDDKLAFGAIQLDGDGNILQYNAAEGDITGRDPKQVIGKNFFKDVAPCTDSPEFYGKFKEGVASGNLNTMFEYTFDYQMTPTKVKVHMKKALSGDSYWVFVKRV | soluble
MSLSQRTYGYGRVSTDEQTTSQQLTAIREAGHKVSDNRFIVDEGVSGGVCAMERPAFRNLVENKLEKGDTLVIAKLDRLGRDNIDVQQVVQMLTDKGIKLFILDLPVADLSSPEGKLMLQMFATFAEFEKNRISERIRDKLKQLKQEGKALGRPTKNVYDDVQELKAQGISQRTIADKLNVSLSTVRRNWVDTKRSLEVVTESGEGHHHHHH | soluble
VVPGDASSVVSVNPAKPLISVCIPMYNNGATIERCLRSILEQEGVEFEIVVVDDDSSDDCAAIAATMLRPGDRLLRNEPRLGLNRNHNKCLEVARGGLIQFVHGDDRLLPGALQTLSRRFEDPSVGMAFAPRRVESDDIKWQQRYGRVHTRFRKLRDRNHGPSLVLQMVLHGAKENWIGEPTAVMFRRQLALDAGGFRTDIYQLVDVDFWLRLMLRSAVCFVPHELSVRRHTAATETTRVMATRRNVLDRQRILTWLIVDPLSPNSVRSAAALWWIPAWLAMIVEVAVLGPQRRTHLKALAPAPFREFAHARRQLPMAD | not soluble
MKILVIGGPTAIGKSDLACCVAQKLNGEIISADSMAVYKFMDIGTAKPLECMKKVPHHLIDVVEPGGYFDAKIFEEMAKEKIEEIKRKGKVPIVVGGTYLYIQALLYGIDETPKPDWNLRNKLYEIARKKGNDYLYEKLKAIDPKYAKKIHKNDLRRIVRALEVFINTGKPFSSFHSWNKPKMDFVGIYLKRSPESLYKRIENRVYDMVKDGLLEEVKKLLEMGYENFLTSGQAIDYKEFVPCAKGEKSLEECIKEAIKNTKKQAKRQIRWFRKQGWHEIDLDKLSIEEACEEVVRIYKDANKTKLEHHHHHH | not soluble
MPTFTTHRQIAHSAREMFDLVADIECYPEFLPMCEALIVRSRKKCEEKTLLLADMTVGYKLVRETFTTQVFLQPKEKRIEVKYIDGPFKYLENRWAFHHTEKSNICNIEFFIDYEFKSKMLGLVMGSMFDIAFHKFTDAFERRAHRIYGSPVI | soluble
